These results are taken from patent US20250326861A1 (REGENXBIO, published 2025).

In the assay the target is Activated human plasma kallikrein (Enzyme Research Laboratories) (human, UniProt P03952 20-638). The assay can be described thus: cell-based or functional assay.
Chain of Activated human plasma kallikrein (Enzyme Research Laboratories) (P03952 20-638 limits assumed): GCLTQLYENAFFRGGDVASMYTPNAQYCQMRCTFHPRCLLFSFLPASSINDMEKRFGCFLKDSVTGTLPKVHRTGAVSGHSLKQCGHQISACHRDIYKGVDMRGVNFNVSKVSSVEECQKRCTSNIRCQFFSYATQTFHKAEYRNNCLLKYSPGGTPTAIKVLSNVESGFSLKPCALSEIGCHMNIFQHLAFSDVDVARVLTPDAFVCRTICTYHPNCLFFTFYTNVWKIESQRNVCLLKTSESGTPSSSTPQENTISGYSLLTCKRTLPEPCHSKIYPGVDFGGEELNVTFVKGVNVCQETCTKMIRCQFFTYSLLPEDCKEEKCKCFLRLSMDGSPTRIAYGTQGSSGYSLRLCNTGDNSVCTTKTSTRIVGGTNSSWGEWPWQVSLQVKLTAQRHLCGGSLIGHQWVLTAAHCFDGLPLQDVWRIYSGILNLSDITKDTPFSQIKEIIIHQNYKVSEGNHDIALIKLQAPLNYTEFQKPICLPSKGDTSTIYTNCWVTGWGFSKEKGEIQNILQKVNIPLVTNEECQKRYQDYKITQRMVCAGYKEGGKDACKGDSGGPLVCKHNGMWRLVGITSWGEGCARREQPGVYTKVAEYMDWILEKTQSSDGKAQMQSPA

B1: Lanadelumab (full length anti-pKal antibody) (antibody, IgG1, V domains shown)
VH: EVQLLESGGGLVQPGGSLRLSCAASGFTFSHYIMMWVRQAPGKGLEWVSGIYSSGGITVYADSVKGRFTISRDNSKNTLYLQMNSLRAEDTAVYYCAYRRIGVPRRDEFDIWGQGTMVTVSS
VL: DIQMTQSPSTLSASVGDRVTITCRASQSISSWLAWYQQKPGKAPKLLIYKASTLESGVPSRFSGSGSGTEFTLTISSLQPDDFATYYCQQYNTYWTFGQGTKVEIK
With B1, the “IC50 (read off the curve), 6.25 nM pKal” value was roughly 2 nM and the “IC50 (read off the curve), 12.5 nM pKal” value was roughly 4 nM.
